From IntAct's records for PubMed 31169361

B1: Astrotactin-1 (Mus musculus), Q61137-2 (parent)
chain: MALAGLCALFACCWGPAAVLATAAGDVDPSKELECKLKSITVSALPFLRENDLSIMHSPSASEPKLLFSVRNDFPGEMVVVDDLENTELPYFVLEISGNTEDIPLVRWRQQWLENGTLLFHIHHQDGAPSLPGQDPTEEPQHESAEEELRILHISVMGGMIALLLSILCLVMILYTRRRWCKRRRVPQPQKSASAEAANEIHYIPSVLIGGHGRESLRNARVQGHNSSGTLSIRETPILDGYEYDITDLRHHLQRECMNGGEDFASQVTRTLDSLQGCNEKSGMDLTPGSDNAKLSLMNKYKDNIIATSPVDSNHQQATLLSHTSSSQRKRINNKARAGSAFLNPEGDSSTEAENDPQLTFYTDPSRSRRRSRVGSPRSPVNKTTLTLISVTSCVIGLVCSSHVSCPLVVKITLHVPEHLIADGSRFILLEGSQLDASDWLNPAQVVLFSQQNSSGPWAMDLCARRLLDPCEHQCDPETGECLCYEGYMKDPVHKHLCIRNEWGTNQGPWPYTIFQRGFDLVLGEQPSDKIFRFTYTLGEGMWLPLSKSFVIPPAELAINPSAKCKTDMTVMEDAVEVREELMTSSSFDSLEVLLDSFGPVRDCSKDNGGCSKNFRCISDRKLDSTGCVCPSGLSPMKDSSGCYDRHIGVDCSDGFNGGCEQLCLQQMAPFPEDPTLYNILMFCGCIEDYKLGVDGRSCQLVTETCPEGGDCGESREVPMNQTLFGEMFFGYNNQSKEVATGQVLKGTFRQNNFARGLDQQLPDGLVVASVPLENQCLEEISEPTPDPDFLTGMVNFSEVSGYPVLQHWKVRSVMYHIKLNQAAISQAFSNALHSLDGATSRADFVALLDQFGNHYIQEAVYGFEESCSIWYPNKQVQRRLWLEYEDISKGNSPSDESEERERDPKVLTFPEYIASLSDSGTKRMAAGVRMECQSKGRCPSSCPLCHVTSSPETPAEPVLLEVTRASPIYELVTNNQTQRLLQEATMSSLWCSGTGDVIEDWCRCDSTAFGADGLPTCAPLPQPVLRLSTVHEPSSNLVVLEWEHSEPPIGVQIVDYLIRQEKVTDRMDHSKVETETVLSFVDDIISGAKAPCAMPSQVPDKQLTTISLIIRCLEPDTIYMFTLWGVDNTGRRSRPSDVIVKTPCPVVDDVKAQEIADKIYNLFNGYTSGKEQQTAYNTLLDLGSPTLHRVLYHYNQHYESFGEFTWRCEDELGPRKAGLILSQLGDLSSWCNGLLQEPKISLRRGSLKYLGCRYSEIKPYGLDWSELSRDLRKTCEEQTLSVPYNDYGDSKDI
B2: Astrotactin-1 (Homo sapiens), O14525-2 (parent)
chain: MALAGLCALLACCWGPAAVLATAAGDVDPSKELECKLKSITVSALPFLRENDLSIMHSPSASEPKLLFSVRNDFPGEMVVVDDLENTELPYFVLEISGNTEDIPLVRWRQQWLENGTLLFHIHHQDGAPSLPGQDPTEEPQHESAEEELRILHISVMGGMIALLLSILCLVMILYTRRRWCKRRRVPQPQKSASAEAANEIHYIPSVLIGGHGRESLRNARVQGHNSSGTLSIRETPILDGYEYDITDLRHHLQRECMNGGEDFASQVTRTLDSLQGCNEKSGMDLTPGSDNAKLSLMNKYKDNIIATSPVDSNHQQATLLSHTSSSQRKRINNKARAGSAFLNPEGDSGTEAENDPQLTFYTDPSRSRRRSRVGSPRSPVNKTTLTLISITSCVIGLVCSSHVNCPLVVKITLHVPEHLIADGSRFILLEGSQLDASDWLNPAQVVLFSQQNSSGPWAMDLCARRLLDPCEHQCDPETGECLCYEGYMKDPVHKHLCIRNEWGTNQGPWPYTIFQRGFDLVLGEQPSDKIFRFTYTLGEGMWLPLSKSFVIPPAELAINPSAKCKTDMTVMEDAVEVREELMTSSSFDSLEVLLDSFGPVRDCSKDNGGCSKNFRCISDRKLDSTGCVCPSGLSPMKDSSGCYDRHIGVDCSDGFNGGCEQLCLQQMAPFPDDPTLYNILMFCGCIEDYKLGVDGRSCQLITETCPEGSDCGESRELPMNQTLFGEMFFGYNNHSKEVAAGQVLKGTFRQNNFARGLDQQLPDGLVVATVPLENQCLEEISEPTPDPDFLTGMVNFSEVSGYPVLQHWKVRSVMYHIKLNQVAISQALSNALHSLDGATSRADFVALLDQFGNHYIQEAIYGFEESCSIWYPNKQVQRRLWLEYEDISKGNSPSDESEERERDPKVLTFPEYITSLSDSGTKHMAAGVRMECHSKGRCPSSCPLCHVTSSPDTPAEPVLLEVTKAAPIYELVTNNQTQRLLQEATMSSLWCSGTGDVIEDWCRCDSTAFGADGLPTCAPLPQPVLRLSTVHEPSSTLVVLEWEHSEPPIGVQIVDYLLRQEKVTDRMDHSKVETETVLSFVDDIISGAKSPCAMPSQVPDKQLTTISLIIRCLEPDTIYMFTLWGVDNTGRRSRPSDVIVKTPCPVVDDVKAQEIADKIYNLFNGYTSGKEQQTAYNTLLDLGSPTLHRVLYHYNQHYESFGEFTWRCEDELGPRKAGLILSQLGDLSSWCNGLLQEPKISLRRSSLKYLGCRYSEIKPYGLDWAELSRDLRKTCEEQTLSIPYNDYGDSKEI
B3: Nuclear factor erythroid 2-related factor 2 (Mus musculus), Q60795 (parent)
chain: MMDLELPPPGLQSQQDMDLIDILWRQDIDLGVSREVFDFSQRQKDYELEKQKKLEKERQEQLQKEQEKAFFAQFQLDEETGEFLPIQPAQHIQTDTSGSASYSQVAHIPKQDALYFEDCMQLLAETFPFVDDHESLALDIPSHAESSVFTAPHQAQSLNSSLEAAMTDLSSIEQDMEQVWQELFSIPELQCLNTENKQLADTTAVPSPEATLTEMDSNYHFYSSISSLEKEVGNCGPHFLHGFEDSFSSILSTDDASQLTSLDSNPTLNTDFGDEFYSAFIAEPSDGGSMPSSAAISQSLSELLDGTIEGCDLSLCKAFNPKHAEGTMEFNDSDSGISLNTSPSRASPEHSVESSIYGDPPPGFSDSEMEELDSAPGSVKQNGPKAQPAHSPGDTVQPLSPAQGHSAPMRESQCENTTKKEVPVSPGHQKAPFTKDKHSSRLEAHLTRDELRAKALHIPFPVEKIINLPVDDFNEMMSKEQFNEAQLALIRDIRRRGKNKVAAQNCRKRKLENIVELEQDLGHLKDEREKLLREKGENDRNLHLLKRRLSTLYLEVFSMLRDEDGKPYSPSEYSLQQTRDGNVFLVPKSKKPDTKKN

Variants of: B1
Conditions: with keap1_mouse Keap1, Q9Z2X8
Target sequence in this assay (Q9Z2X8 whole entry): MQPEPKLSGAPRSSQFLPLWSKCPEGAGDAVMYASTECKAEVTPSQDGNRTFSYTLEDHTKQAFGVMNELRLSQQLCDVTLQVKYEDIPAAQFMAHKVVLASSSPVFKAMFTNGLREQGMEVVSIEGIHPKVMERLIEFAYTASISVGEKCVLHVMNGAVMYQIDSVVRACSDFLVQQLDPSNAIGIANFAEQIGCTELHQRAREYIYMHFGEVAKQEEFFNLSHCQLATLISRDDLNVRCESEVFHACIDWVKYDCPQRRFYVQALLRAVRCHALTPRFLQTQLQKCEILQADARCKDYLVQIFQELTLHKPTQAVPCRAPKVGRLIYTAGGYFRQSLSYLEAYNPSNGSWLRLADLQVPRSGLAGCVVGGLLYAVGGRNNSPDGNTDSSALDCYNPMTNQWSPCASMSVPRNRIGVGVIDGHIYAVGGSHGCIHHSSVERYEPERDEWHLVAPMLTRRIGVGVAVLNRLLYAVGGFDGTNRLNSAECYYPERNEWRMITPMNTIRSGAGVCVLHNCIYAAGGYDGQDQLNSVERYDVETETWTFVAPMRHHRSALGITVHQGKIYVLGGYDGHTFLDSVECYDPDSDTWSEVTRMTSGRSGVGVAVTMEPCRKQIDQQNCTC

Variant	effect of a mutation on the interaction
D476A;E478A	with no effect

Variants of: B2
Conditions: with keap1_human KEAP1, Q14145
Chain of keap1_human KEAP1, Q14145 (Q14145 whole entry): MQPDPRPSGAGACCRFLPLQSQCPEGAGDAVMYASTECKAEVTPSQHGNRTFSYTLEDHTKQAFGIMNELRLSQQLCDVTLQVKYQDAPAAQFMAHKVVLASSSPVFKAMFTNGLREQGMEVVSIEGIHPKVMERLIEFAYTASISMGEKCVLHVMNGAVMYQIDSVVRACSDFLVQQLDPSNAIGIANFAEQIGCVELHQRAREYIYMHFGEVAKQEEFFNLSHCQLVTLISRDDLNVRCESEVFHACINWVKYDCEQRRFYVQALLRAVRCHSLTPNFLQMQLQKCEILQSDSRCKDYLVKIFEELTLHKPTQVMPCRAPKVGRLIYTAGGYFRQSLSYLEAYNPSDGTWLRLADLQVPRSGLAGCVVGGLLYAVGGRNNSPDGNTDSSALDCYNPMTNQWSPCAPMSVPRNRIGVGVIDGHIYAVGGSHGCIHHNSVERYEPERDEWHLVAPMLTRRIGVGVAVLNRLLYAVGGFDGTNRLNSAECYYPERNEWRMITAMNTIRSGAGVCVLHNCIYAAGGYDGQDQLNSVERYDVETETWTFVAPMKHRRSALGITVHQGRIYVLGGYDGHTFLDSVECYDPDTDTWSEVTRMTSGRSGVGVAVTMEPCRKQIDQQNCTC

Variant	effect of a mutation on the interaction
C475S;C482S	with no effect
C475S;C484S	decreasing interaction strength
C475L	with no effect
C475S	decreasing interaction strength
C482S;C484S	increasing interaction strength
C484S	with no effect
C482S	with no effect
D476A;E478A	disrupting interaction strength

Variants of: B2
Conditions: with keap1_human KEAP1, Q14145
Remark: another data set of the same source

Variant	effect of a mutation on the interaction
D476A;E478A	decreasing interaction strength

Variants of: B3
Conditions: with keap1_mouse Keap1, Q9Z2X8
Target sequence in this assay (Q9Z2X8 whole entry): as the sequence (Q9Z2X8 whole entry) above

Variant	effect of a mutation on the interaction
D77A;E79A	disrupting interaction strength
